# Measurements from paper PMC3641136.
# B1: neuronal glycine transporter 2 (GlyT2), wild type (natural protein)
# chain: MDCSAPKEMNKPPTNILEATVPGHRDSPRAPRTSPEQDLPAAAPAAAVQPPRVPRSASTGAQTFQSADARACEAQRPGVGFCKLSSPQAQATSAALRDLSEGHSAQANPPSGAAGAGNALHCKIPALRGPEEDENVSVGKGTLEHNNTPAVGWVNMSQSTVVLGTDGIASVLPGSVATTTIPEDEQGDENKARGNWSSKLDFILSMVGYAVGLGNVWRFPYLAFQNGGGAFLIPYLMMLALAGLPIFFLEVSLGQFASQGPVSVWKAIPALQGCGIAMLIISVLIAIYYNVIICYTLFYLFASFVSVLPWGSCNNPWNTPECKDKTKLLLDSCVIGDHPKIQIKNSTFCMTAYPNLTMVNFTSQANKTFVSGSEEYFKYFVLKISAGIEYPGEIRWPLAFCLFLAWVIVYASLAKGIKTSGKVVYFTATFPYVVLVILLIRGVTLPGAGAGIWYFITPKWEKLTDATVWKDAATQIFFSLSAAWGGLITLSSYNKFHNNCYRDTLIVTCTNSATSIFAGFVIFSVIGFMANERKVNIENVADQGPGIAFVVYPEALTRLPLSPFWAIIFFLMLLTLGLDTMFATIETIVTSISDEFPKYLRTHKPVFTLGCCICFFIMGFPMITQGGIYMFQLVDTYAASYALVIIAIFELVGISYVYGLQRFCEDIEMMIGFQPNIFWKVCWAFVTPTILTFILCFSFYQWEPMTYGSYRYPNWSMVLGWLMLACSVIWIPIMFVIKMYLAPGRFIERLKLVCSPQPDWGPFLAQHRGERYKNMIDPLGTSSLGLKLPVKDLELGTQC
# modifications: N-glycans on asparagines 345, 355, 360 and 366; the CNX-bound form is the 75 kDa under-glycosylated, EndoH-sensitive precursor
# Biological target: calnexin (CNX), endogenous in COS7 cells (African green monkey (endogenous in COS7))
# Experiment: co-IP; COS7 cells pulse-labeled 15 min with [35S]methionine/cysteine and chased; sequential immunoprecipitation with anti-CNX, then anti-GlyT2 antibodies (1% CHAPS); SDS-PAGE, fluorography, densitometry; also after treatment of cells with tunicamycin, castanospermine, deoxynojirimycin, deoxymannojirimycin, kifunensin, or at 45°C
# Conditions: not given
row,Molecule,half-life of the complex (pulse-chase) [min]
1,B1,60

# Biological target: calnexin (CNX), endogenous in COS7 cells
# Experiment: sequential co-immunoprecipitation (CNX then GlyT2 antibodies), densitometry of fluorograms
# Conditions: 15 min [35S]methionine/cysteine pulse, 30 min chase, n = 3, parent: est. 100, read off a plot
row,Molecule,percent of parent
1,"neuronal glycine transporter 2 (GlyT2), wild type (from UniProt P58295) N1",69 % of wtGlyT2
2,"neuronal glycine transporter 2 (GlyT2), wild type (from UniProt P58295) N2",62 % of wtGlyT2
3,"neuronal glycine transporter 2 (GlyT2), wild type (from UniProt P58295) N3",72 % of wtGlyT2
4,"neuronal glycine transporter 2 (GlyT2), wild type (from UniProt P58295) N13",85 % of wtGlyT2
5,"neuronal glycine transporter 2 (GlyT2), wild type (from UniProt P58295) N23",62 % of wtGlyT2
6,"neuronal glycine transporter 2 (GlyT2), wild type (from UniProt P58295) N123",35 % of wtGlyT2
7,"neuronal glycine transporter 2 (GlyT2), wild type (from UniProt P58295) N234",48 % of wtGlyT2
8,"neuronal glycine transporter 2 (GlyT2), wild type (from UniProt P58295) N345D; N355D; N360D; N366D",74 % of wtGlyT2
9,"neuronal glycine transporter 2 (GlyT2), wild type (from UniProt P58295) N366D",51 % of wtGlyT2
